According to publication PMC6176637 (Proceedings of the National Academy of Sciences of the …, 2018):

Molecular target: the molecule itself
Assay: cryo-EM structure

B1: full-length hemagglutinin (HA) from A/duck/Alberta/35/76(H1N1) virus (natural protein)
chain 1: not shown
chain 2: not shown
- stoichiometry N: 3
